# Test results published in US20250282835A1.
# Key:
# Experiment in all cases: cell-based or functional assay
# CytERm-mScarlet3 = target: CytERm-mScarlet3
# CytERm-mScarlet-I3 = target: CytERm-mScarlet-I3
# Cyterm fusion: dTomato = target: Cyterm fusion: dTomato
# Cyterm fusion: mEGFP = target: Cyterm fusion: mEGFP
# Cyterm-TagRFP-T = target: Cyterm-TagRFP-T
# Cyterm-mCherry = target: Cyterm-mCherry
# Cyterm-mScarlet = target: Cyterm-mScarlet
# Cyterm-mScarlet-I = target: Cyterm-mScarlet-I
substance,measurement,setting,value
CytERm-mScarlet3,% cells with OSER,CytERm-mScarlet3,7%
CytERm-mScarlet-I3,% cells with OSER,CytERm-mScarlet-I3,5%
Cyterm fusion: dTomato,% cells with OSER,Cyterm fusion: dTomato,82%
Cyterm fusion: mEGFP,% cells with OSER,Cyterm fusion: mEGFP,11%
Cyterm-TagRFP-T,% cells with OSER,Cyterm-TagRFP-T,64%
Cyterm-mCherry,% cells with OSER,Cyterm-mCherry,18%
Cyterm-mScarlet,% cells with OSER,Cyterm-mScarlet,8%
Cyterm-mScarlet-I,% cells with OSER,Cyterm-mScarlet-I,8%
